Measured values taken from patent publication US20180346531.

What was measured:
[1] = system: S1-KRAB ATF (synthetic construct); test: cell_activity; conditions: luciferase reporter with target site in HEK293T, p<0.05
[2] = system: S1 zinc finger array (six-finger ATF) (synthetic construct); test: EMSA; conditions: ZBA (10 mM Tris pH 8.5, 90 mM KCl, 1 mM MgCl2, 100 uM ZnCl2), 0.05% NP-40, 0.1 mg/mL BSA, glycerol, room temperature 1.5 h; apparent KD, average of at least …
[3] = system: SR71-KRAB ATF (synthetic construct); test: cell_activity; conditions: luciferase reporter with target site in HEK293T, p<0.05

Which activity (fold repression) [1] does the source give for “CATGCGTAGGGAGCCGCG (double strand) [S1 target site (18 bp; Snurf promoter)]” here?
Its activity (fold repression) is over 5.

Which Kd [2] does the source give for “CCTCTTCGCTATTACGCCAGCCATGCGTAGGGAGCCGCGGAACGTTCGATCGTACTCGAGTCAGGGTG (double strand) [S1 EMSA target]” here?
Its Kd is 3 nM.

With “GCAGGACCTGCTGCACTG (double strand) [SR71 target site (18 bp)]” as the sequence, how does the activity (fold repression) [3] read?
The activity (fold repression) was over 5.
